Experimental data as given in patent US12427188B2, “Pyocyanine demethylases and related phenazine degrading agents compositions, methods and systems for interfering with viability of bacteria” (priority 2020, dated 2025).
“Also recorded” adds a separate entry of the source.

Tests used:
[1] = Activity after boiling (kinetic stability); format: physicochemical; settings: after 30 and 60 min of boiling; PodA 3 μM, PYO 100 μM
Method: FIG. 13. Activity of WT PodA30-162 and PodA10 after boiling. Protein was boiled as described in Materials and Methods, followed by an activity assay with PodA (3 μM) and PYO (100 μM) in a Spectramax M3 plate reader monitoring PYO absorbance (690 nm) overtime. Specific activity (nmol min-1 mg-1) was calculated for each sample. Replicates of PodA^WT un-boiled were averaged and set to 100% activity (dashed line). All other activities of boiled samples were compared to this value and presented as a percentage. Data represent technical triplicates and error bars represent standard deviation. A t-test was completed, with * representing a p-value<0.05 and ns representing not significant.
Due to the high thermal stability of PodA, stability assays that rely on monitoring protein unfolding over a temperature gradient were not suitable for the related testing. Therefore the enzyme's kinetic stability were analyzed by boiling WT PodA41-162 and PodA10 and measuring activity of each protein after specified boiling times. […] We also noted that several designed mutations in PodA8 and PodA10 were not prevalent in a multiple-sequence alignment of PodA homologs (FIG. 14), indicating the importance of the atomistic calculations to design success

[2] = Protein yield of PodA variants purified from inclusion bodies of overexpression culture; settings: purified from inclusion bodies, per L of E. coli overexpression culture
Method: Protein overproduction and purification of soluble and inclusion body fractions. Plasmids coding for proteins of interest were transformed into E. coli BL21 […]. […]. Cultures were grown at 37° C. with shaking to an optical density of 0.4 (OD600 nm) and plasmid expression was induced with IPTG (50 μM) and shaken overnight at 16° C. Cells were harvested by centrifugation at 5,000×g for 10 min in a Beckman Coulter Avanti J-20 XOI refrigerated centrifuge using a JLA-8.1000 rotor at 4° C. Cell pellets were stored at −80° C. until used.
For purification of PodA from inclusion bodies, the pellets remaining following lysis and centrifugation at 40,000×g were resuspended in 20 mL of detergent buffer [50 mM HEPES (pH 7.5) and 1% Triton-X (v/v)] using a Bio-gen PRO200 cell homogenizer (PRO Scientific). Sample was spun for 15 min at 40,000×g at 4° C. in a Beckman Coulter Avanti centrifuge with a JA-25.50 rotor. Supernatant was discarded and the remaining cell pellet was resuspended in 5 mL of buffer [50 mM HEPES (pH 7.5), 500 mM NaCl] using a cell homogenizer, supplemented with lysozyme (200 μg mL^−1), and incubated for 10 min. Volume was increased to 20 mL with HEPES (50 mM, pH 7) and sample was spun for 40,000×g at 4° C. for 15 min. Supernatant was discarded and pellet was homogenized in 10 mL of denaturing buffer 50 mM HEPES (pH 7.5), 500 mM NaCl, and 8M urea) and incubating rocking overnight. The sample was spun at for 40,000×g at 25° C. for 30 min and supernatant was incubated with 1 mL HisPur Ni-NTA resin (Thermo Fisher Scientific) on a rocking platform for 10 min. Beads were allowed to settle without shaking, supernatant was discarded, and resin was pipetted into glass gravity columns. Resin was washed with 15 mL of denaturing buffer, followed by an elution with denaturing buffer supplemented with imidazole (500 mM). Fractions were analyzed by SDS-PAGE and those containing protein were combined into SnakeSkin 3.5 K MWCO dialysis tubing (Thermo Fisher Scientific). Urea was slowly dialyzed out in HEPES (50 mM, pH 7.5) and NaCl (500 mM) by lowing urea concentrations by 1 M increments. Each step was dialyzed at RT for 30 min. Protein was dialyzed in HEPES (50 mM, pH 7.5), NaCl (500 mM), and imidazole (20 mM) overnight at 4° C. The following day, protein was cleaved for 3 h at 25° C. with TEV protease (1:50 mg:mg ratio of TEV to PodA). The sample was applied to a HisPur gravity column and cleaved protein in the flow thru was confirmed by SDS-PAGE. Cleaved PodA protein was then dialyzed for storage for 3 h at 4° C. in HEPES (50 mM pH 7.5), NaCl (250 mM) and finally in HEPES (50 mM, pH 7.5), NaCl (100 mM), and glycerol (20%, v/v). Protein concentration was established on a NanoDrop™ using the extinction coefficient and MW of each protein. Protein was drop frozen in LN2 and stored at −80° C. until use.

[3] = Continuous spectrophotometric PYO demethylation assay (specific activity and kinetics of PodA); format: biochemical; settings: for Activity over range of pH: PodA10 3 μM
Method in brief: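 PodA (3 μM) with PYO (100 μM for specific activity; varied for kinetics) in 50 mM phosphate pH 6.0, 1% ethylene glycol, 25 °C; PYO loss followed at 690 nm every 10 s for 10 min. Rates from linear slope via ε 4,130 M^−1 cm^−1; Km, Vmax by Michaelis–Menten, kcat = Vmax/[E].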

B1: PodA10: Designed PodA41-162 variant: A53N, I73T, A87V, M99V, A129T; SEQ ID NO: 4 (protein)
chain: MVTMTLDVKNDQVNKHDFGKPGMDVGDMDIFSDTLSVDGKQVGYDGGVCFFTNVTPDNPVTYCELTIHLDAGEIFARSLTPATLAPFTMTITGGTGEYANSKGELTVSGVATPDEKYELKLTK
For B1, the Activity after boiling [1] was “significantly higher activity compared to WT PodA30-162”, the Yield [2] was 5.92 mg/L^−1 and the “catalytic efficiency in growth medium compared to buffer” value ([3]; LB and SCFM, PodA 3 μM) was “No change”. For the same molecule, the “catalytic efficiency compared with PodA^WT” value ([3]; Michaelis-Menten kinetics, 3 μM protein) was “slight increase in efficiency”, the “PYO demethylation activity relative to wild type” value ([3]; PYO 50 μM, PodA variants 3 μM) was “wild-type activity was maintained” and the “Activity over range of pH” value ([3]; PYO 100 μM) was “maintained activity over a large range of pH, with no observable preference between a pH of 5-9”. For the same molecule, the “Activity over range of pH” value ([3]; PYO 100 μM, listed as PodA1041-162) was “maintained activity over a large range of pH, with no observable preference between a pH of 5.5 and 9”, the “Effect of salts (NaCl and KCl) on activity” value ([3]; cystic fibrosis sputum range, 66 mM Na+, 15 mM K+) was “not altered” and the “Effect of slight increase in viscosity (ethylene glycol or glycerol 1% v/v) on activity” value ([3]; pH 6, PodA 3 μM, PYO 100 μM) was “slight ad-vantage; also recorded: slight advantage”.
